# Assay: Protein caging and uncaging, particle counting of TEM images
# Assay type: physicochemical
# Conditions: low power light irradiation for 60 seconds (302 nm)
# Description: BSA was directly caged through the reaction of our crosslinker with the surface amino groups on the protein. Streptavidin was indirectly caged by attaching biotin-amine to the nanocage cavity and then subsequently mixing with the protein. […] None were seen tethered to the cage exterior.
# TEM samples were prepared by placing 3 μL of sample solution onto a carbon coated grid (FCF400-Cu, Electron Microscopy Sciences) which was previously charged using a plasma etcher (30 seconds of irradiation). After 2 minutes, the solution was wicked away from the grid with filter paper (Whatman 50 hardened). The grid was immediately treated with stain for 30 seconds and excess solution was wicked away. The remaining solution on the grid was evaporated at room temperate prior to imaging. TEM images were acquired with an FEI Tecnai Spirit Transmission Electron Microscope operated at 80 kV. Saturated uranyl formate (in ddH2O prepared freshly before usage) was used for protein caging experiments and 2% uranyl acetate (diluted with ddH2O from 4%, Electron Microscopy Sciences) was used for all other samples.
# Protein containing nanocages were created following the general cavity functionalization protocol. 5 equivalents per oligo handle were used. […] The extent of uncaging was analyzed using particle counting of the TEM images. The entirety of each TEM image was analyzed to avoid bias.
substance,measurement,value
streptavidin,nanocages containing protein after light irradiation,9%
same,uncaging efficiency,87%

# — US10617759B2, “Light-stimulated release of cargo from oligonucleotides” (Trustees of Boston University, priority 2016, dated 2020)
